Laboratory results: US20080118508A1 (published 2008)

Molecular target: T1, human C5a receptor (C5aR) on purified human neutrophils (human, UniProt P21730 1-350)
T1 construct: whole, on cells
T1 sequence (looked up): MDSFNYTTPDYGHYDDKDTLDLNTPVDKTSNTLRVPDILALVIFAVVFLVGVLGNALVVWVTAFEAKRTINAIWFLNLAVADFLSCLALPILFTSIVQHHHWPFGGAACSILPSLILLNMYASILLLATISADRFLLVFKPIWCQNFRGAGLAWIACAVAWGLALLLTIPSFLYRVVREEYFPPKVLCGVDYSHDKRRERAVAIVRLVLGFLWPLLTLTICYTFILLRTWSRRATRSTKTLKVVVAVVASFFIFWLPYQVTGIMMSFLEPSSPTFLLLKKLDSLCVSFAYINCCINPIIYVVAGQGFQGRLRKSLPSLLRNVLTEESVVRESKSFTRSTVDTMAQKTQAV
Assay: displacement of 125I-C5a from purified human neutrophils by unlabeled recombinant human C5a
Description: MAb137-26 was serially diluted in 1.5 ml Eppendorf centrifuged tubes with a binding buffer (1% BSA in RPMI1640 medium) to give final concentrations ranging from 640 nM to 0.04 nM. […] Purified recombinant human C5a (Sigma, St. Louis, Mo. was used as positive control, whereas an isotype-matched irrelevant monoclonal antibody was used as negative control. For the maximum binding of ¹²⁵I-C5a, 36 μl of the binding buffer without the antibodies or C5a was used instead. Fifty microliters of the neutrophil suspension was added to each tube for incubation on ice. At the end of the 40-minute incubation period, the mixture from each tube was transferred to the top of 800 μl of a separation buffer (6% BSA in PBS) in another Eppendorf tube. The tubes were than centrifuged at 2000×g for 3 minutes at room temperature. After the supernatant was aspirated, the cell pellet was re-suspended in 0.5 ml of de-ionized water to lyse the cells. The cell lysate was then mixed with 3 ml of Ultima Gold scintillation fluid (Packard Instrument, Meriden, Conn.) for radioactive counting. The percent inhibition of ¹²⁵I-C5a binding is defined as: [Cpmₘₐₓ−Cpmbkg]−[Cpmca−Cpmbkg]/[Cpmₘₐₓ−Cpmbkg]×100 where: Cpmₘₐₓ=maximum count per minute without competing agents; Cpmbkg=background cpm without addition of ¹²⁵I-C5a; and Cpmca=cpm with competing agents.

B1: human C5a (ligand, UniProt P01031 678-751, looked up)
chain: TLQKKIEEIAAKYKHSVVKKCCYDGACVNNDETCEQRAARISLGPRCIKAFTECCVVASQLRANISHKDMQLGR
notes: domain: C5a; Bought recombinant protein; also called recombinant C5a (Sigma); purified recombinant human C5a
How did the IC50 turn out when B1 was run?
The IC50 was 30 nM.
